Data as given in publication PMC7073468, “Small RNA‐binding protein RapZ mediates cell envelope precursor sensing and signaling in Escherichia coli” (The EMBO Journal, 2020).

T1: Strep-RapZ (N-terminally Strep-tagged RapZ) (Escherichia coli, UniProt P0A894 1-284)
T1 construct: it is not measured here; also called YhbJ; source: purified recombinant protein (procedure in the Appendix Supplementary Methods); not shown: Strep, N-terminal, kept
T1 sequence (looked up): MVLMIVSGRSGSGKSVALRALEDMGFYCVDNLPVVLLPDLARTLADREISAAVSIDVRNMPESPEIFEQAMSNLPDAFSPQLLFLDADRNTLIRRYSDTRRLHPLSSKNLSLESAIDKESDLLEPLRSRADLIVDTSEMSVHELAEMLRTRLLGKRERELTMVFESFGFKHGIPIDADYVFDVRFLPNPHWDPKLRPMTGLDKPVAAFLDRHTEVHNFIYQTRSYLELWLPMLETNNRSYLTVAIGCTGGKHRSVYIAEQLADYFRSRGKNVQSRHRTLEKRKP


Legend:
RapZ = RapZ (Escherichia coli, UniProt P0A894); test: SPR (Biacore, single-cycle kinetics); also co-purification detected by HILIC-MS/MS; format: binding
[1] = biological target: T1, Strep-RapZ (N-terminally Strep-tagged …); test: SPR; Biacore T200, 25°C; Strep-RapZ (200–400 RU) captured on a CM5 chip coated with Strep-Tactin XT; QseE-His10 or QseF-His10 injected at 10 nM, 50 nM, 2 × 100 nM, 250 nM, 500 nM and 1,000 nM, multicycle; HBS-EP buffer (10 mM HEPES pH 7.4, 150 mM NaCl, 3 mM EDTA, 0.005% P20); overall affinities; details: both partners purified

Row | Kd [1] [µM] | koff [1] [s⁻¹] | kon [1] [M⁻¹ s⁻¹] | Molecule | Kd (RapZ) [nM]
1 |  |  |  | N[C@H]1C(O)O[C@H](COP(=O)(O)O)[C@@H](O)[C@@H]1O (stereo partly shown) [GlcN6P] | 186
2 | 12 | 0.054 | 4500 | QseE’-His10 (soluble cytoplasmic C-terminal part of kinase QseE, aa 196–475, with the HAMP and transmitter domains) (domain or fragment, Escherichia coli, UniProt P52101 196-475, looked up, Histidine kinase QseE (a.k.a. GlrK, YfhK) of Escherichia coli, cytoplasmic part aa 196-475 (HAMP and transmitter domains); also called His10-tagged QseE’; GlrK; source: purified recombinant protein (procedure in the Appendix Supplementary Methods)) MIIGPVKNIERMINRLGEGRSLGNSVSFSGPSELRSVGQRILWLSERLSWLESQRHQFLRHLSHELKTPLASMREGTELLADQVVGPLTPEQKEVVSILDSSSRNLQKLIEQLLDYNRKQADSAVELENVELAPLVETVVSAHSLPARAKMMHTDVDLKATACLAEPMLLMSVLDNLYSNAVHYGAESGNICLRSSLHGARVYIDVINTGTPIPQEERAMIFEPFFQGSHQRKGAVKGSGLGLSIARDCIRRMQGELYLVDESGQDVCFRIELPSSKNTK | 
